Assay results: patent US20120100142A1

What was measured:
Experiment in all cases: cell-based or functional assay
[1] = biological target: HA of influenza A/Swine/Iowa/15/30 (H1N1) virus (influenza A/Swine/Iowa/15/30 (H1N1) virus)
[2] = biological target: HA of influenza A/USSR/92/77 (H1N1) virus (influenza A/USSR/92/77 (H1N1) virus)
[3] = biological target: HA of A/Mexico/4108/09 (2009 A (H1N1)) virus (influenza A/Mexico/4108/2009 (H1N1) virus)
[4] = biological target: HA of influenza A/Weiss/43 (H1N1) virus (influenza A/Weiss/43 (H1N1) virus)

mAb 1F1 (antibody) showed a Specific HAI activity [1] of 0.04 µg/mL, a neutralizing activity, specific activity [2] of 0.88 µg/mL and an HAI, specific activity of indicated mAb [3] of over 5 µg/mL. The Neut Ab, specific activity of indicated mAb [3] was over 5 µg/mL and the neutralizing activity, specific activity [4] was 1.8 µg/mL.
